{"source": "the DeepSol protein solubility set"}
{"experiment": "soluble on expression in E. coli; label from the status in PepcDB or PDB records"}
{"sequence": "MDMNVEIFAGIVNNPLTKKALRNLSGSCKTCGDKRIKIAIDYALGYRSDACWKCRAAAKVVKKVIEAGGRAFNVDMNEIREKFRDAYWRKGLASVIKGIAHFGVRKPFVPGAPFQVVWDITYSCNLRCKHCYATAGKPLQDELTTDEALETIDKLDRLGVTIIAFSGGEPLVRRDIFELTRYAAEKGIYVAIATNGTLITEEIAKRMKENGVGYVQISLDGMKETHEAFRGIRGCFDKTVEGIRNAVKTGLFVNVSMTVTRYNYHEVPKVVELCEKLGVNWFMHYNFIPTGRGREIVEADITPEQREELLKWLYEKNYSSNISLLSTAPQFARVALQCQGEIVPTHFYNVNAGERLKELAEFIGGCGAGRFYFAIKANGDIQPCVFFPLKVGNVREDDLEELWLHNHVFEDLRDKDILEGCGSCGYRYVCGGCRARAYNYFGDYTKPDPGCVNNRRWWERISKIEVRA", "soluble on expression in E. coli": "not soluble"}
{"sequence": "PDLAQKAANLTQEELAGLLYDSLYTKILPLSDDIIVYPAHGAGSACGKNMMQETVDSLGNQKRVNYALNQPGKEAFIASVIEGLLPPPAYFGGNVAMNKMGYDSIDNVMERGLSALSATDFEAIAKTSDALVLDTRAPGVFAQGFIPRSINIGLDGDFAPWVGTMIVDVKQPLLLVADPGREQEVITRLSRVGFDQVLGYLDGGFDTWNASGKEIDHVECITANEFAERFCPEESLVFDVRKESEYAAEHVEGAYSRPLAYINDWIQDIPRDRHFYLHCIGGYRSMIASSILLSRGYRNFTDIEGGFASIAQTGVPKTDYVCQSKVSKK", "soluble on expression in E. coli": "not soluble"}
{"sequence": "AIARSEWPFDYASEADAMLHRITPENFEKLVRFAARLLRVGEIIALPTDTVYGLAAAARNSHGIELLYQTKQRDLRKPLAIAVPSVEDVSVYLHTEHLPPGLLEAILPGPLTLLLRQREDYVGIDLQDVRIDQYRGWERAKRLAPNLNLRRDGLLGVRVPDASFACAVSRELGDPLALTSANVSGRGDCGSVDEFRALWSACAAVFDGGAMPKPVMPSTVVDLSVPGTFRITRAGWMATDLVRILENKFGLTNKSANTSN", "soluble on expression in E. coli": "soluble"}
{"sequence": "MSLDLFRSEPVAQPLAARLRPANLDEYVGQEHLLARGKPLREALEQGALHSMIFWGPPGVGKTTLARLLAQVSDAHFETISAVLSGVKEIRQAVEVAKQHAAQYGRRTILFVDEVHRFNKSQQDAFLPYVEDGTLIFIGATTENPSFELNNALLSRARVYVLKSLDEAALRKLVGRALNEDKGLGKRKLRLPEESFQVLLAAADGDGRRLLNLLENAADLAEDGSEISPELLQNLLGDTRRRFDKGGEAFYDQISALHKSVRGSNPDAALYWFARMLDGGCDPLYIARRVVRMASEEVGNADPRALGLCLSAWDVQERLGSPEGELAVAQAIVYLACAPKSNAVYSAFNAAMRDVAESGSREVPLHLRNAPTKLMKSLGYGEEYRYAHDEPDAYAAGEDYFPEDLEPRRYYQPVPRGLELKIRDKLEHLAELDRTSPRQREGHHHHHH", "soluble on expression in E. coli": "soluble"}
{"sequence": "QVKDFVIEPPIKNNLHIYKTFGVFGGKEYSANSMYLVTKKGVVLFDVPWEKVQYQSLMDTIKKRHNLPVVAVFATHSHDDRAGDLSFFNNKGIKTYATAKTNEFLKKDGKATSTEIIKTGKPYRIGGEEFVVDFLGEGHTADNVVVWFPKYNVLDGGCLVKSNSATDLGYIKEANVEQWPKTINKLKAKYSKATLIIPGHDEWKGGGHVEHTLELLNKK", "soluble on expression in E. coli": "soluble"}
{"sequence": "MGSDKIHHHHHHMKETWISERRMIQLPGLTIDRHISAPNELEFPGCKYHLLCILLSDHNQQKMTRIGEQESQKSQAKGDFWICPAKMSGIWSWNSTDESLTFVIDPLFLSRMAEEVGELNESKVELLSTVNAHDPQIEAIARLFQAEFDTGGLGGHLYAESLIQVLIVHLLRQYCAFSPKIKPDVGSMPNNRLQPVFDYIHSYLDRPLLLAELAEISGISQYYFCRLFKQSMGVAPYQYVLQQRMEKAKELLHQRKYAIAEIALLVGCADQSRFTRHFKKYVGVTPRMFLSKK", "soluble on expression in E. coli": "not soluble"}
{"sequence": "SAADLGQIPDVDIDSDGVFKYVLIRVHLAEPSGDPAKECKEIVRGYKWAEYHADIYDKVSGELQRNGYDCECLGGGRISHQSQDRKIHVYGYSMGYGRAQHSVSTEKIKAKYPDYEVTWADDGY", "soluble on expression in E. coli": "soluble"}
{"sequence": "MDGPKPNLASAASMESLNSVSSEATNPSQVRTLFVSGLPMDAKPRELYLLFRGCRGYEGALLKMTSKNGKPTSPVGFVTFLSQQDAQDARKMLQGVRFDPECAQVLRLELAKSNTKVARPKQSPPPPQHAALSAAAAGVPQFLAPMQHDLLLDPQSAALFNEQQLLALSLPHLHAAQALQAAYMPASALQQYSQNQLFAAAQMHPAAAAAASLQHSQQASQASTSACSTLFVANLSAEVNEDTLRGVFKAFSGFTRLRLHNKNGSCVAFVEYSDLQKATQAMISLQGFQITANDRGGLRIEYARNKMADVNG", "soluble on expression in E. coli": "soluble"}
{"sequence": "MTQLKTQYPSLIIDASFITLAANATVKPQDKTYNTVNLLNRFFLIWLDVASRGLSHHHVLSHPFKDWMTNMLDFPYHHEFIEFLGRWTHILIALPKRHHGQVDTAIPRYLLVTIREKTGIVKLTTVQNTAFTTQSNQLKKQYGQFLLTESNNCCACPGCDRPLILTSGNLAAENYEVSAIEKDKDAEALNLIALCPDGFLTYQADRRKKIVTTLKNVKKILVSAHNSQQAISDMKLDSGIVSVLTSLNKLKCDEYNISYDSKQLTDKISPENNRTLYQLVKNQVIDNYLTIQKIIVNLDKQGKIDYEKIQYQTRSMYKKLKAAKHNNLAIFNTISEKLHLATLQDIYFCQMIVSYFIQKCEVLE", "soluble on expression in E. coli": "not soluble"}
{"sequence": "MIHLVDYALLKPYLTVDEAVAGARKAEELGVAAYCVNPIYAPVVRPLLRKVKLCVVADFPFGALPTASRIALVSRLAEVADEIDVVAPIGLVKSRRWAEVRRDLISVVGAAGGRVVKVITEEPYLRDEERYTLYDIIAEAGAHFIKSSTGFAEEAYAARQGNPVHSTPERAAAIARYIKEKGYRLGVKMAGGIRTREQAKAIVDAIGWGEDPARVRLGTSTPEALL", "soluble on expression in E. coli": "soluble"}
{"sequence": "MLFDHLRDEVMRLDAGITQEVLKLYIAFKAETNFVDVVPQKSRLRLSLNMQFHELVDPKGIAKDVTNVGRWGNGDVEIGFSDLAQLPYIMGLIRQAFEKQMESALV", "soluble on expression in E. coli": "not soluble"}
{"sequence": "GMETTHYSIAQHFSSGDFPAVYACFNDIIEWNIIGNQVVKGKADVIDFCNKMLPEMKGAVLTNDNVIQNENQIVIEGKCRYFDAEGKEAFVSYCDIYRFENDTIKTITSYCI", "soluble on expression in E. coli": "soluble"}
{"sequence": "MESALQKAAGEGMDEFIQVFTDKYKEIIGGELTADTMPLLTGEQHSLLAYQIFRDEIMFGGFCQLIQNGYGGYIFDNPFAKVMRLWGAEEFSKLVYKAKKIYDANRKDLEKERTDDEFMAMYEQYEAFDDLEEAYLDMEEQVTTLVASYVDNHLELFAKIIK", "soluble on expression in E. coli": "not soluble"}
{"sequence": "MAAPSAGSWSTFQHKELMAADRGRRILGVCGMHPHHQETLKKNRVVLAKQLLLSELLEHLLEKDIITLEMRELIQAKVGSFSQNVELLNLLPKRGPQAFDAFCEALRETKQGHLEDMLLTTLSGLQHVLPPLSCDYDLSLPFPVCESCPLYKKLRLSTDTVEHSLDNKDGPVCLQVKPCTPEFYQTHFQLAYRLQSRPRGLALVLSNVHFTGEKELEFRSGGDVDHSTLVTLFKLLGYDVHVLCDQTAQEMQEKLQNFAQLPAHRVTDSCIVALLSHGVEGAIYGVDGKLLQLQEVFQLFDNANCPSLQNKPKMFFIQACRGDETDRGVDQQDGKNHAGSPGCEESDAGKEKLPKMRLPTRSDMICGYACLKGTAAMRNTKRGSWYIEALAQVFSERACDMHVADMLVKVNALIKDREGYAPGTEFHRCKEMSEYCSTLCRHLYLFPGHPPT", "soluble on expression in E. coli": "not soluble"}
{"sequence": "MAHHHHHHMERSLYYTPQLLWLQVMDRMPYEFTHYFVSSPPPHHEAMLSGIREQYGRPYSAAKPFDVELLGRLWNGHSRVMFATDNLVFSAVDHSVSDRWKEMGFQGTDPSTDFRGAGIFGLAQLVYLVEHHPEEWSAILTPDFMAAAAGLNVTMRLATMLGINSSLNQLSSSVLSKYSAREARLQLCRFIFDPSVDVATQRLSEVYCFAMRLLHYRWMRSTRNIMEFNQQLSSMYTELDRLLFLCNTLEELCSLL", "soluble on expression in E. coli": "not soluble"}
{"sequence": "MGHHHHHHSHMANSAGSMANSAGSPELLTKHNRRVAQKTVESLKRSLMSTNLHPSKQVKTSSQYTIFSTPQIATTTPQTQVSPGMPLMFPGGSPNFVQDIKMENGFMDVDSQSSQCPSVERNFASPRSNCSTVDSIPPMQMGQNQTHLYLPDATNFTFNGNFASPSSNCSTVDSIPPFQIGQRNNHMYLPENSNFPVNGCSPTHFSGGSMTPINNNNNVLINNNNNDFLSQKMSAISIPPQGNFGIKQVYQQTQQFLPQLQPESIPYLAQSHPEQSQYQQQQQPQEQQPPADEPTQSFSDLISSSIGMAPIDTSELIQDIEAELNSLGIQPFK", "soluble on expression in E. coli": "not soluble"}
{"sequence": "MLTPPPDSKISTTDKSLDKLSAPLDMLKQMNESTMEQTKLDELRKKMSLQAEILNKAKADNDMFFRLLIELMSLKLQGELFKEQLSKISKESGYDSAQSALIQATNSEGQSPLQYALQKQDFSTAKYFLDNGAKAGPIEKAVFEIALDSKAAKEFGFPPLPPEKEKLHPVKNFGLVLGIKTTSVDGTPSQFGHIAPTYQLMTDSVSHFAKSHPGNKNFQEIANAFQFSNEASAFKFSTPQRNPEAGNDLARRIQGGELTTIPVSCKGHAMGLSYVPDGPGSKSGYLVYTNRGLGAKSSEHGTHIFRIEDSSKITPEFINNMTSGHSNGASHDEIMSQIKAAAGNKEPIHHIKQKGQKNDNCTIANSKSNIEGILLCQKAREVGGFDKLTESDMDSVKKEYKEFTKHMRVEKVNELAKALKENPQDPDLNNLTKEYLKQHPNADPKLKQTLETALKQASESSMTLSQPGKTI", "soluble on expression in E. coli": "not soluble"}
{"sequence": "MGSDKIHHHHHHMSIHPALESVGQLFGANLIFRVPRYQRYYAWDAEQIGDFLADLELCLKARAGGNRREHFFGGLVTVRTDVEGSSRQNMEVIDGQQRLASFSMLAAQLRNAAVQLAESVDAAVPDNPKEFLLEFAKTLKAEFERYKDKIKLQVVEIDRLELSKPDLIFFKDLVEGRNPTPSRMSHRLLKQAWDRIGAKLAQIVASENTDVEKAQALSLVDTVMEEDWNPHPHDH", "soluble on expression in E. coli": "not soluble"}
{"sequence": "MTVSREVELEGHIIDSGMMQSCFGIIMDLGGSFSVQKFDIGRHKDEESYARMLVEADDEAQLQSIVHELHQHGVNPSDPKDATLVPAPDDQVVPHGFYSTTNHPLEHHHHHH", "soluble on expression in E. coli": "not soluble"}
{"sequence": "MSLSDSRSDDRHPSVTPEQLATLSHEFRTPLNGVLGMARLLENTKLTAEQRSYVTALRESGDHLLSLVNDVLHFARLGAAAIELSLAPVDIEGLLRQVAELMSPRAHEKGIEIAWAVSSPLPTILADEGRLRQILLNFAGNAVKFTEAGGVLLTASAIDGGRVRFSVADTGPGVAPDARARIFEAFVQTDVTHATQLGGAGLGLAIVSRLSAAMGGAVGVGGELGQGAEFWFEAPFATAAAPLRAAPLEGRNVAIASPNAIVRAATARQIEAAGGRAYAAVDIASALAGAPADAVLLIDAALSGPRGALKPPAGRRSVVLLTPEQRDRIDRLKAAGFSGYLIKPLRAASLVAQVLQAVTADGVAEDEPAHDDRIAGAVASGARVLLAEDNPINALLARTLLEREGCIVDRVADGEQAIAAASAGVYDLILMDLRMPGLTGIEAARALRAKGVATPIAALTADAFDEDRRTCLAAGMDDFLVKPLTQEALRDALKRWTTGGVSGEGHHHHHH", "soluble on expression in E. coli": "soluble"}
